This experiment has as its target Drosophila melanogaster GNPTAB homolog, luminal portion (residues 50-630) (Drosophila melanogaster). Kind of experiment: cryo-EM structure.

By stoichiometry N is commonly meant a count of units in the complex or per binding partner. “Drosophila melanogaster GNPTAB homolog, luminal portion (residues 50-630) (domain or fragment)”: the stoichiometry N turned out to be 2.

The values are drawn from paper doi:10.1101/2021.03.25.436948.
